Data reported in patent US20140086913A1 (Gilead, published 2014).

T1: human DDR2 stably expressed on HEK293 cells (human, UniProt Q16832 22-855)
T1 construct: whole, on cells; also called hDDR2
T1 sequence (looked up): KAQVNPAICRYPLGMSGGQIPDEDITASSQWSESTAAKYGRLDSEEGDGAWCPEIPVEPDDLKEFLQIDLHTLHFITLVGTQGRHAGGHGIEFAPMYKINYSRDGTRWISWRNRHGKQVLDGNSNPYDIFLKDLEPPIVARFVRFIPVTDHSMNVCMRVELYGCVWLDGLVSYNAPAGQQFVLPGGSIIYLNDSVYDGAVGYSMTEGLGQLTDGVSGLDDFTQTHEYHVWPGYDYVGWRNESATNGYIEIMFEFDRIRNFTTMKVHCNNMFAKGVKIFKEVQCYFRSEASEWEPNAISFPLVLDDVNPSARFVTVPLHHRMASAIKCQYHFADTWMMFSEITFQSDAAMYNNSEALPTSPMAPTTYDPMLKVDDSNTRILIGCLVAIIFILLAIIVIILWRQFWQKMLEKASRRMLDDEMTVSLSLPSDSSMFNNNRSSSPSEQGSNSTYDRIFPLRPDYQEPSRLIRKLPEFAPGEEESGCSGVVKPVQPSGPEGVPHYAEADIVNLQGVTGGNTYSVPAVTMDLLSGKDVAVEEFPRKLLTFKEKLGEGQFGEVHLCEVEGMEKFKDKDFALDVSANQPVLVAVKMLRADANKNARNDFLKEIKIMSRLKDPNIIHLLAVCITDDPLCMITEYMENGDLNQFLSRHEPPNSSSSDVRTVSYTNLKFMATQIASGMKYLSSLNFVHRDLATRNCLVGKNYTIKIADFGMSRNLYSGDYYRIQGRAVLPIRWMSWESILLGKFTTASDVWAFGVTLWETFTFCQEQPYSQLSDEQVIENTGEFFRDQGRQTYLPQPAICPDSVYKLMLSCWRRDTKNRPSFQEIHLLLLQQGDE

T2: mouse ECD-DDR1-Fc (mouse; human, UniProt Q03146 22-414)
T2 construct: also called mouse DDR1-ECD; wild-type mouse DDR1-ECD; not shown: human IgG1 Fc of the vector pFuse-hIgG1-Fc1 (Invivogen)
T2 sequence: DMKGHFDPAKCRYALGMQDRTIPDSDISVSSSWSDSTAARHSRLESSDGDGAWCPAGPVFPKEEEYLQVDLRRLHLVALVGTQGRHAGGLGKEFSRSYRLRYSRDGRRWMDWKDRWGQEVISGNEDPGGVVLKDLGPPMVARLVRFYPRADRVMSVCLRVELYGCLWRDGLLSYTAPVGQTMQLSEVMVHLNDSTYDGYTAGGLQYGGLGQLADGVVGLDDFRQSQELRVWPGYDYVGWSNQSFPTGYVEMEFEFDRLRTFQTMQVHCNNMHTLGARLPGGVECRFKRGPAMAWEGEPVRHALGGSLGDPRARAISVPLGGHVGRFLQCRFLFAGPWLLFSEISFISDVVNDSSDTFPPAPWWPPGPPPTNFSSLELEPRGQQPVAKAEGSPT

B1: AB2074 (antibody, V domains shown)
VH: EIQLQQSGPELVNPGASVKVSCKASGYSFTDYNMYWVKQSHGKSLEWIGYIDPYNGGTSYNQKFKGKATLTVDKSSSTAFMHLNSLTSEDSAVYYCAREYYGSRLWYFDVWGAGTAVTVSS
VL: DIVMTQSPSSLAMSVGQKVTMSCKSSQSLLNRNNQKNYLAWYQQKPGQSPKLLVYFASTRESGVPDRFIGSGSGTDFTLTLSSVRAEDLAENFCQQHYSTPFTFGSGTRLEIKR
notes: mouse hybridoma mAb
B2: AB2026 (antibody, V domains shown)
VH: EVQLVESGGGLVQPGGSLKFSCAASGFTFSSYGMSWVRQTPDKRLELVAIINSHGFSTYYPDSVKGRFTISRDNAKNTLYLQMSSLKSEDTAIYYCARGGYGNYGMDYWGQGTSVTVSS
VL: DIVLTQSPASLAVSLGQRATISCRASESVDSYGNSFMHWYQQKVGQPPKLLIFRASNIESGIPARFSGSGSRTDFTLTINSVEADDVATYYCQQSNEAPYTFGGGTKLEIKR
notes: mouse hybridoma mAb
B3: AB2031 (antibody, V domains shown)
VH: EVQLVESGGGLVQPGGSLKFSCAASGFTFSSYGMSWVRQTPDKRLELVAIINSHGFSTYYPDSVKGRFTISRDNAKNTLYLQMSSLKSEDTAIYYCARGGYGNYGMDYWGQGTSVTVSS
VL: DIVLTQSPASLAVSLGQRATISCRASESVDSYGNSFMHWYQQKVGQPPKLLIFRASNIESGIPARFSGSGSRTDFTLTINSVEADDVATYYCQQSNEAPYTFGGGTKLEIKR
notes: mouse hybridoma mAb

Tests used:
[1] = target: T1, human DDR2 stably expressed on HEK293 …; assay: flow cytometry, HEK293/hDDR2
Protocol: Additional monoclonal antibodies were obtained from individual hybridomas in Example 1 and were characterized for their properties.
Cells were cultured in DMEM with 10% FBS and 0.8 mg/mL hygromycin. When cells reached 60-80% confluence, they were centrifuged at 1,200 rpm for 5 minutes, suspended in FACS buffer (1×PBS, 1% BSA), and aliquoted into a 96-well plate at 1×10⁶ cells per well. The anti-DDR1 monoclonal antibodies or appropriate isotype controls at 2 μg per 1×10⁶ cells were added and incubated at 4° C. for 1 hr. The cells were washed twice with FACS buffer then stained with the anti-IgG-PE secondary antibody at 10 μL per well at 4° C. for 1 hr. The cells were washed again and measured for the MFI values or signals using flow cytometry (LSR Fortessa instrument, BD Biosciences). Background MFI signals from vector-only cells (i.e. no DDR1 or DDR2 expression) was subtracted from those of the cells treated with antibodies. Higher MFI values or signals indicated increased binding or specificity of the anti-DDR1 antibodies to the DDR1 on the cell surface.

[2] = target: human DDR1 (isoform B) stably expressed on HEK293 cells (human) (UniProt Q08345); assay: flow cytometry, HEK293/human DDR1, normalized to empty-vector cells
human DDR1 (isoform B) stably expressed on HEK293 cells (human), sequence (Q08345 19-913): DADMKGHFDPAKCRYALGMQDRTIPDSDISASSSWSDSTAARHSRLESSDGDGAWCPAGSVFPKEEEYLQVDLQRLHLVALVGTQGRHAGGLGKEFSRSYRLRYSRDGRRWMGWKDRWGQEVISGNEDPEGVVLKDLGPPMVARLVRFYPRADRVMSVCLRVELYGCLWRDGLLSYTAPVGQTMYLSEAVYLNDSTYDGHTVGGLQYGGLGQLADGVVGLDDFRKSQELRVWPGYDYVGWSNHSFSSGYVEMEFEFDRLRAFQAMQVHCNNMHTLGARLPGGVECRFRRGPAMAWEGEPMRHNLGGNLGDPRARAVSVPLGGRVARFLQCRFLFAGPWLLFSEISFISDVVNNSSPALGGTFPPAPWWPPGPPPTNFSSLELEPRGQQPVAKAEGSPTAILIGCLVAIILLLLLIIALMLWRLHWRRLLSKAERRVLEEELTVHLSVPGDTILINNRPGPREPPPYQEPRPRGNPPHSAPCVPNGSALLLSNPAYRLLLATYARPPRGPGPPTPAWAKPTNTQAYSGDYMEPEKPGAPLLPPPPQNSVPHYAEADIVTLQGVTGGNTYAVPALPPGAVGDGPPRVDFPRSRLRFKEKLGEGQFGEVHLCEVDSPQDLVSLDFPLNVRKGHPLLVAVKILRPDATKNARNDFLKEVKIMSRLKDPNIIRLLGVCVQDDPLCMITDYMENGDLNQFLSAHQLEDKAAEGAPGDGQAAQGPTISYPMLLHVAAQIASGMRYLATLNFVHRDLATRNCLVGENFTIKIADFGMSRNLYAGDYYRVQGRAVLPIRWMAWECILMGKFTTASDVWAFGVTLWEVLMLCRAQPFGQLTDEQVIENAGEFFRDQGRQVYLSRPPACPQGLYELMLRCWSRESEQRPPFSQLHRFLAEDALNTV

[3] = target: DDR1 endogenously expressed on human cancer cell lines (T47D, HCT-116, A431) (human) (UniProt Q08345); assay: flow cytometry, T47D cells
[4] = target: DDR1 endogenously expressed on human cancer cell lines (T47D, HCT-116, A431) (human) (UniProt Q08345); assay: flow cytometry, HCT116 cells
[5] = target: T3, DDR1ECD-Fc (R&D Systems, Catalog #2396-DR) (human, UniProt Q08345 21-416); assay: ELISA, coated antigen, apparent KD
T3 construct: range 21-416; construct as described for the bought immunogen; also called human ECD-DDR1-Fc; Fc-ECD-DR1; not shown: human IgG1, Pro100-Lys330
Protocol: (§1) In this study, ELISA was used to determine the affinity of murine anti-DDR1 monoclonal antibodies to the extracellular domain (ECD) of either human or murine DDR1. A 96-well MaxiSorb ELISA plates (Nunc) were coated with 2 μg/mL of one of three purified recombinant tagged proteins: human ECD-DDR1-His protein, human ECD-DDR1-Fc, or mouse ECD-DDR1-Fc overnight at 4° C. The next day, the plates were blocked with 5% bovine serum albumin (BSA, Jackson Immunoresearch) prior to the addition of serially diluted anti-DDR1 monoclonal antibodies. Antibodies were incubated for 1 hr at room temperature. The binding of antibody to the antigen was detected by incubating samples with anti-mouse IgG-HRP (horse radish peroxidase) secondary detection antibody (Jackson Immunoresearch) for 1 hr. After a washing step, 3,3′,5,5″-tetramethylbenzidine (TMB) reagent was added for HRP to produce a colorimetric signal. The reaction was stopped by addition of 1M hydrochloric acid after 2 minutes and measured for absorbance (optical density, OD) at 450λ on a Molecular Devices plate reader. The OD values were plotted against antibody concentration and fitted using a using 4-parameter logistic equation in SoftMax software (Molecular Devices). The apparent affinity constant (KD) was taken from the C-parameter of the equation (y=(A−D)/(1+(x/C)̂B)+D). The apparent affinity constants were summarized (in some cases shown as average values) in Table 10 below. Lower value indicates higher binding affinity of the antibody to the antigen.

[6] = target: T4, human ECD-DDR1-His protein (human, UniProt Q08345 21-416); assay: ELISA, coated antigen, apparent KD
T4 construct: also called huDDR1-ECD-His; DDR1ECD-6Xhis; not shown: His tag
Protocol: as §1

mouse ECD-DDR1-Fc = target: T2, mouse ECD-DDR1-Fc; assay: ELISA, coated antigen, apparent KD
Protocol: as §1

[7] = target: T3, DDR1ECD-Fc (R&D Systems, Catalog …); assay: ELISA
[8] = target: DDR1 with a ProLink Tag (PK) in engineered U20S cells (DiscoveRx) (UniProt Q08345); assay: cell-based or functional assay
[9] = target: DDR1 endogenously expressed on human cancer cell lines (T47D, HCT-116, A431) (human) (UniProt Q08345); assay: cell-based or functional assay
[10] = target: human DDR1 (isoform B) stably expressed on HEK293 cells (human) (UniProt Q08345); assay: flow cytometry, HEK293/hDDR1
[11] = target: DDR1 with a ProLink Tag (PK) in engineered U20S cells (DiscoveRx), Q08345; assay: cell-based or functional assay

| Binder | MFI [1] | MFI [2] | MFI [3] | MFI [4] | Kd [5] | Kd [6] | Kd (mouse ECD-DDR1-Fc) | Kd [7] | Mean EC50, DDR1 Tyr513 phosphorylation assay (U20S) [8] | EC50, DDR1 phospho-specific ELISA (T47D) [9] | Maximal inhibition, DDR1 phospho-specific ELISA (T47D) [9] | NPI of cluster formation at 66 nM (A431 cells) [9] | MFI [10] | Mean EC50, DDR1 Tyr513 phosphorylation assay (U20S) [11] | EC50, cluster formation assay (A431 cells) [9] |
| --- | --- | --- | --- | --- | --- | --- | --- | --- | --- | --- | --- | --- | --- | --- | --- |
| B1 | 382 MFI | 7810 MFI | 4420 MFI | 1470 MFI | 0.259 nM | 0.47 nM | 28.5 nM | 0.259 nM | 1.5 nM | 0.47 nM | 100% | 112% | 7810 MFI |  |  |
| B2 | 203 MFI | 6350 MFI | 4670 MFI | 1540 MFI | 0.298 nM | 0.161 nM | 17.9 nM | 0.298 nM |  | 0.39 nM | 100% | 115% | 6350 MFI | 1.7 nM |  |
| B3 | 195 MFI | 8540 MFI | 4600 MFI | 1460 MFI | 0.257 nM | 0.148 nM | 17.3 nM | 0.257 nM |  | 0.4 nM | 100% | 113% | 8540 MFI | 0.99 nM | 0.63 nM |
